According to the supplement of paper PMC9170038:

Tested on: MS2 coat protein
Assay: apparent KD of MS2 coat protein; designed switch direction (-1 OFF switch, 1 ON switch): -1; higher = weaker reporter binding
Procedure, shortened: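 Three titration conditions were used: no input, 200 uM small-molecule ligand, and an oligonucleotide input. In each, SNAP-549-labelled MS2 coat protein was raised from 0.7 or 1.5 nM, doubling, to 3 µM over designed RNA switches transcribed on Illumina chips by stalled E. coli RNA polymerase. Curve fits of normalised cluster fluorescence gave values whose per-design median over clusters is the apparent KD.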

[1] = input ligand: microRNA oligo, concentration not stated
[2] = Eterna round: R95, input ligand: microRNA oligo, concentration not stated

| Sequence | apparent KD of MS2 coat protein (input ligand: FMN 200 uM) | apparent KD of MS2 coat protein (input ligand: none) | apparent KD of MS2 coat protein [1] | apparent KD of MS2 coat protein [2] |
| --- | --- | --- | --- | --- |
| UGAAAGUGAGGAUAUCCAAUAUAUGACAUGAGGAUCACCCAUGUUUCCACUCGUACCUCCGGAGAAGGCACAAAGU [Ex5 #58] (Eterna round: R97, puzzle: Exclusion 5) | 26.2 nM | 28.8 nM | – | – |
| UGAAGUUGUGUGAGGAUAUUUGAAGUGAAAGCUUCGGAGAAGGCACAUGAGGAUCACCCAUGUAAGCGGCUUCG [-25.1, -23 kcal, A 26%, 3bis-3] (Eterna round: R97, puzzle: Brourd's mod of Exclusion 4) | 18.4 nM | 15 nM | – | – |
| UGACAGCUAGGAUAUGGGCGUGCUUACAUGAGGAUCACCCAUGUGGUAUCUGAGUAGCACCCAGAAGGAGCCCGCG [Eternabot (L2) Solution 87] (Eterna round: R97, puzzle: Exclusion 5) | 1350 nM | 656 nM | – | – |
| UGAGACUGAGGAUAUACUAGCCCAUAAAGUGGGUAGUGGGUACAUGAGGAUCACCCAUGUAGAAGGCAGCCUCG [Omei Repeat Sequence v2] (Eterna round: R97, puzzle: Exclusion 2) | 251 nM | 29.4 nM | – | – |
| UGAGCAUGAGGAUAUACAAGGCGACCGUGAGGUCGAGGGUUACAUGAGGAUCACCCAUGUAGAAGGCAUGUUCU [jl-ex2-4.10] (Eterna round: R97, puzzle: Exclusion 2) | 514 nM | 48.3 nM | – | – |
| UGAGCUCUAGUAGGAUAUGUCGGAUAUGUUGUUGAGGUUCACCCAACGACGUCAAUGACAGAAGGACAGAAGGACUCCUGCUCU [pwkr exNG2 2xFMN 1xF5.7] (Eterna round: R96, puzzle: Exclusion NG 2) | 111 nM | 315 nM | 77 nM | – |
| UGAGCUUACGUAGGAUAUGAGGAUCACCCAUAGAAGGAUAUCGAAAGAGAAGGUCUGAGGAUUACCCAGAAGGACGUGGGCUCU [pwkr exNG2 2xF5 2xFMN.12] (Eterna round: R96, puzzle: Exclusion NG 2) | 732 nM | 151 nM | 122 nM | – |
| UGAGCUUCAGGAUAUACAAGGCGACCGUGAGGUCGAAGGUUACAUGAGGAUCACCCAUGUAGAAGGGAAGUUCU [Mat - Exclusion 2 - JL Mod - D13] (Eterna round: R97, puzzle: Exclusion 2) | 36.7 nM | 21.6 nM | – | – |
| UGAGCUUGAGGAUAUACAAGGCGACCGUGAGGUCGAGGGUUACAUGAGGAUCACCCAUGUAGAAGGCAAGUUCU [Mat - Exclusion 2 - JL Mod - D10] (Eterna round: R97, puzzle: Exclusion 2) | 460 nM | 54.3 nM | – | – |
| UGAGUACUGCGAGGAUAUACAUGAGGAUCACCCAUGUAAUAGUGUGAGGCUUUGCCUCACACAAUGUAGAAGGCGCAGUACUCU [Mat - Exclusion NG 2 - Mod of JL - D5] (Eterna round: R96, puzzle: Exclusion NG 2) | 15.5 nM | 11.8 nM | 9.63 nM | – |
| UGAGUGCUGCGAGGAUAUACAUGAGGAUCACCCAUGUAAGCCUGUGAGGCUUUGCCUCACAGGAUGUAGAAGGCGCAGUACUCU [JL ENG2 1.17] (Eterna round: R96, puzzle: Exclusion NG 2) | 12.5 nM | 13.5 nM | 9.19 nM | – |
| UGAGUGCUGCGAGGAUAUACAUGAGGAUCACCCAUGUAAUCGUGUGAGCCAAAGGCUCACACGAAGUAGAAGGCGCAGUACUCU [Mat - Exclusion NG 2 - Mod of JL - D25] (Eterna round: R96, puzzle: Exclusion NG 2) | 12.5 nM | 15.2 nM | 11.1 nM | – |
| UGAGUGCUGCGAGGAUAUACAUGAGGAUCACCCAUGUGGAUGUCUGAGGCUUUGCCUCAGACAAUGUAGAAGGCGCAGUACUCU [JL ENG2 1.21] (Eterna round: R96, puzzle: Exclusion NG 2) | 96.4 nM | 21 nM | 14.2 nM | – |
| UGAGUGCUGCGAGGAUAUACAUGAGGAUCACCCAUGUGGUGGUGUGAGGCUUUGCCUCACACCAUGUAGAAGGCGCAGUACUCU [JL ENG2 1.08] (Eterna round: R96, puzzle: Exclusion NG 2) | 237 nM | 37.2 nM | 33.3 nM | – |
| UGAGUGCUGCGAGGAUAUACAUGAGGAUCACCCAUGUUUAGGUGUGAGGCUUUGCCUCACACCAUGUAGAAGGCGCAGUACUCU [JL ENG2 1.07] (Eterna round: R96, puzzle: Exclusion NG 2) | 16.8 nM | 12.8 nM | 8.96 nM | – |
| UGAGUGCUGCGAGGAUAUACAUGAGGAUCACCCAUGUUUUCGUGUGAGGCUUUGCCUCACACGAAGUAGAAGGCGCAGUACUCU [JL ENG2 1.12] (Eterna round: R96, puzzle: Exclusion NG 2) | 10.8 nM | 12.3 nM | 11.8 nM | – |
| UGAGUGCUGCGAGGAUAUACAUGAGGAUCACCCAUGUUUUCGUGUGAGGCUUUGCCUCACACGAUGUAGAAGGCGCAGUACUCU [JL ENG2 1.13] (Eterna round: R96, puzzle: Exclusion NG 2) | 11.5 nM | 12.8 nM | 8.16 nM | – |

| Sequence | apparent KD of MS2 coat protein (input ligand: FMN 200 uM) | apparent KD of MS2 coat protein (input ligand: none) | apparent KD of MS2 coat protein [1] | apparent KD of MS2 coat protein [2] |
| --- | --- | --- | --- | --- |
| UGAUCAAAUGUCAGGAUAUGCUGUUGGAAACAACAGCAGAAGGGACAUGAGGAUCACCCAUGUCUUGUCGAUUU [Magic-02] (puzzle: Brourd's mod of Exclusion 4) | – | – | – | 20.4 nM |
| UGAUCAGACCGAGGAUAUACAUGUAGGACGCACGUGAGUGCGUCCAUUACAUGAGGAUCACCCAUGUAGAAGGCGGUCUGAUCU [JL ENG2 1.93] (Eterna round: R96, puzzle: Exclusion NG 2) | 331 nM | 157 nM | 133 nM | – |
| UGAUCUACUGAGGAUAUUAUAUCACCCGACUGAUAAGAAGGCAGUACAUGAGGAUCACCCAUGUGGGUAGCCAU [Polaris9] (Eterna round: R97, puzzle: Exclusion 6) | 50.8 nM | 34.7 nM | – | – |
| UGAUCUAGCGGAGGAUAUACAUGAGGAUCACCCAUGUAGAUAUCAUGACCGUAGUCGUGUAUCGUGUAGAAGGCCGCUAGAUCU [JL ENG2 3.69] (Eterna round: R96, puzzle: Exclusion NG 2) | – | – | 12.7 nM | – |
| UGAUCUAGCGGAGGAUAUACAUGAGGAUCACCCAUGUAGUAGUGAGUUGCGUACAGCUCACUUGUGUAGAAGGCCGCUAGAUCU [JL ENG2 3.59] (Eterna round: R96, puzzle: Exclusion NG 2) | 16.5 nM | 12.7 nM | 10.1 nM | – |
| UGAUCUAGCGGAGGAUAUACAUGAGGAUCACCCAUGUAUAGGCCAUCUGGUGACAGGUGGAACAUGUAGAAGGCCGCUAGAUCU [JL ENG2 3.81] (Eterna round: R96, puzzle: Exclusion NG 2) | 35.9 nM | 13.9 nM | 9.54 nM | – |
| UGAUCUAGCGGAGGAUAUACAUGAGGAUCACCCAUGUAUAGGCCAUGUGGUGACACGUGGAACAUGUAGAAGGCCGCUAGAUCU [JL ENG2 3.82] (Eterna round: R96, puzzle: Exclusion NG 2) | 287 nM | 77.6 nM | 73.3 nM | – |
| UGAUCUUGGGUCAGGAUAUGCUGGUAUUUUUGCCAGCAGAAGGGACAUGAGGAUCACCCAUGUUCUUGGUUUUU [Magic-14] (puzzle: Brourd's mod of Exclusion 4) | – | – | – | 10.4 nM |
| UGCAAGCUUAUGAGACCUCACAUGAGGAUCACCCAUGUGCUCGUCUUAUGGGCCGGCCGGCCGUUGGCCGGCCGGCC [-45.5, -68.5 kcal, A 16%] (Eterna round: R97, puzzle: Sensor, turn-off variant 1) | 16.6 nM | 16.5 nM | – | – |
| UGCAAUCUUAUGAUAUCUCACAUGAGGAUCACCCAUGUGCUCGUCUUAUGUUCUGUUUUGCUGUUGUCCGGCCGGCC [1st try] (Eterna round: R97, puzzle: Sensor, turn-off variant 1) | 27.5 nM | 31.3 nM | – | – |
| UGCAGACGAGGAUAUAAAUGAUAUAACAUGAGGAUCACCCAUGUACGAUCGAAUGAUCGUUUAGAAGGCGUCUGCU [E5/11-A3] (Eterna round: R97, puzzle: Exclusion 5) | 14.1 nM | 15.5 nM | – | – |
| UGCAGACGAGGAUAUAGAUUUAGAUACAUGAGGAUCACCCAUGUAUACAUGUAUUUAGAUUUAGAAGGCGUCUGCA [E5/14-A2] (Eterna round: R97, puzzle: Exclusion 5) | 422 nM | 886 nM | – | – |
| UGCAGACGAGGAUAUAGAUUUAGAUACAUGAGGAUCACCCAUGUAUACAUGUAUUUAGAUUUAGAAGGCGUCUGCU [E5/14-A3] (Eterna round: R97, puzzle: Exclusion 5) | 952 nM | 2220 nM | – | – |
| UGCAGACGAGGAUAUAGAUUUAGAUACAUGAGGAUCACCCAUGUAUAGAUGUAUUUAGAUUUAGAAGGCGUCUGCU [E5/13-A4] (Eterna round: R97, puzzle: Exclusion 5) | 156 nM | 176 nM | – | – |
| UGCAGACGAGGAUAUGAUUAAUAAUACAUGAGGAUCACCCAUGUAAUACUGAUCUAUGGAUCAGAAGGUGUCUGCU [E5/6-B3] (Eterna round: R97, puzzle: Exclusion 5) | 20.8 nM | 24.1 nM | – | – |
| UGCAUGGUAGGAUAUACGGAACAUUAGGGUUUGUUAUGUAGACAUGAGGAUCACCCAUGUAGAAGGGCCGUGCU [JL-ex2-2.14 mat747 mod] (puzzle: Exclusion 2) | – | – | – | 33.8 nM |
